{"source": "paper PMC10669680", "biological_target": "HIV-1 reverse transcriptase p51 (isolated polymerase domain) with the C38V/C280S/M357T substitutions, no affinity tag (HIV-1)", "experiment": "SEC; Superdex 200 Increase 5/150, SEC buffer 50 mM Bis-Tris, 1 M NaCl, 1 mM CDTA, pH 6.5; samples 80% SEC buffer, 20% glycerol; [NaCl] varied 0.15-1.0 M and [p51] varied 10-80 µM; monomer to dimer", "data": [{"substance": "HIV-1 reverse transcriptase p51 (isolated polymerase domain) with the C38V/C280S/M357T substitutions, no affinity tag (domain or fragment)", "values": [{"measurement": "stoichiometry N", "result": 2}]}]}
